Measurements from patent US20050059089A1 (priority 2003, published 2005).
Where “and” joins values, the source holds several entries; their conditions need not be identical. Equal values may be shown once. No end group written: not given here.

T1: mouse GPCR142 (mouse, UniProt Q7TQP4 1-414)
T1 sequence: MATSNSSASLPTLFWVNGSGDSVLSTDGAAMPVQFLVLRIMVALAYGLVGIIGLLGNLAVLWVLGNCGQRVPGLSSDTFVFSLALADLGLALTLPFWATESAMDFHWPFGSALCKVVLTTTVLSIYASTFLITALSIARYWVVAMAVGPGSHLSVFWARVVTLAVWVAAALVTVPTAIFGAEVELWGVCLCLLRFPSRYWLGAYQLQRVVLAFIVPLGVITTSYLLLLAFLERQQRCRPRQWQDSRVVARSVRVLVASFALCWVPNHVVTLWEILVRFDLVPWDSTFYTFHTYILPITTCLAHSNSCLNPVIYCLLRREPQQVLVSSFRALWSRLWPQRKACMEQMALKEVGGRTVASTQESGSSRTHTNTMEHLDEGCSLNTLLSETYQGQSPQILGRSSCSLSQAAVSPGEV

T2: monkey GPCR142 (monkey (Macaca Nemestrina), UniProt Q8TDU9 1-374 (human entry))
T2 chain: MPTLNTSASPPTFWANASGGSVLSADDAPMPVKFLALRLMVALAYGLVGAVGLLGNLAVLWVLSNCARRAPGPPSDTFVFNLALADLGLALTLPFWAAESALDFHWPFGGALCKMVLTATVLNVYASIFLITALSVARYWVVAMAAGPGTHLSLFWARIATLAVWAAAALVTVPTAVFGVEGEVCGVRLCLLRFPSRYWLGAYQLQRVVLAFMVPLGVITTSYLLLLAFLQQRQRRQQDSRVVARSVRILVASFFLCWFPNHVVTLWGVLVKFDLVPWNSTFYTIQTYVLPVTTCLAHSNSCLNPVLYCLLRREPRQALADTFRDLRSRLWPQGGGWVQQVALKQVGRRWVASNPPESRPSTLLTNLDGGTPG

T3: bovine GPCR142 (bovine)
T3 chain: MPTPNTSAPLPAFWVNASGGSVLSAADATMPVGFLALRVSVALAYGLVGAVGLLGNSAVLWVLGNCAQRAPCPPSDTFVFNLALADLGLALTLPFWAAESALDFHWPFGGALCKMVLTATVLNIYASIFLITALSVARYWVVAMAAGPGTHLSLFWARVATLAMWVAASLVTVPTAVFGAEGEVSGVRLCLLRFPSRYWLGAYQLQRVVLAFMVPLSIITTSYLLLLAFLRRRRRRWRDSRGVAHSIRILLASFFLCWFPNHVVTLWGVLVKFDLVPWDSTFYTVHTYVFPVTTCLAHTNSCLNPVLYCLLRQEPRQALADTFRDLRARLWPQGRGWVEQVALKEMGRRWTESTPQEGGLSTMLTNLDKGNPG

T4: porcine GPCR142 (porcine)
T4 chain: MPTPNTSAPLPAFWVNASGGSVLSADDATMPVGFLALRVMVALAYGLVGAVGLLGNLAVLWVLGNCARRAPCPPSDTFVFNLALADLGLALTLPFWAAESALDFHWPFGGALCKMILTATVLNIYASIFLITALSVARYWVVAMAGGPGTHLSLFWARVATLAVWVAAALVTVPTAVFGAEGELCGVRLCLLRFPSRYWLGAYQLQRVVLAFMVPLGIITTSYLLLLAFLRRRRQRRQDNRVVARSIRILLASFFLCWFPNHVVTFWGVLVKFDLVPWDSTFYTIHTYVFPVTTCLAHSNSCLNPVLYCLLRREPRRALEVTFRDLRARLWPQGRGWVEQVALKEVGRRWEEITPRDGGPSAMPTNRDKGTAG

T5: human GPCR135 (human, UniProt Q9NSD7 1-469)
T5 construct: Expressed in COS-7, CHO, SK-N-MC or HEK293 cells
T5 sequence: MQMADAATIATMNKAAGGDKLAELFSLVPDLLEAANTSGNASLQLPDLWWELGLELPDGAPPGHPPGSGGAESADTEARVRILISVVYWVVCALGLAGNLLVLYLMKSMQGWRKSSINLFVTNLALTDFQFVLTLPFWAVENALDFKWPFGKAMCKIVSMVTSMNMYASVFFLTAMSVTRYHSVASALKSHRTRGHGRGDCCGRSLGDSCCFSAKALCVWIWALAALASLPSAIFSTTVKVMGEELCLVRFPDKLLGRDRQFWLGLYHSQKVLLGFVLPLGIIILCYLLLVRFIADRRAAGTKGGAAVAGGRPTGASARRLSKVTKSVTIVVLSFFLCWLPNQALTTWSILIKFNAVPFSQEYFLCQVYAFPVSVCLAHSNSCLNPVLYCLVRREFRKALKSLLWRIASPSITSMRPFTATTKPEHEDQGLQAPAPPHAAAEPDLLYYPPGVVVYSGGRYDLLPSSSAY

B1: human relaxin3 (ligand)
chain 1: RAAPYGVRLCGREFIRAVIFTCGGSRW
chain 2: DVLAGLSSSCCKWGCSKSEISSLC
modifications: disulfide (positions not given here); also: A- and B-chains linked by disulfide bridges, places not given here
notes: also called unlabeled relaxin3; human recombinant relaxin3
B2: human recombinant INSL5 (ligand)
chain 1: KESVRLCGLEYIRTVIYICASSRW
chain 2: QDLQTLCCTDGCSMTDLSALC
modifications: ends and bridges not checked; cysteine pairing not given here
notes: Recombinant peptide from COS-7 cells co-transfected with furin; also called unlabeled INSL5; human INSL5

Assays:
[1] = target: Monkey, bovine, and porcine GPCR142; test: cell-based or functional assay
human GPCR142 [2] = target: T6, human GPCR142 (human, UniProt Q8TDU9 1-374); test: cell-based or functional assay
T6 sequence (Q8TDU9 whole entry L329S): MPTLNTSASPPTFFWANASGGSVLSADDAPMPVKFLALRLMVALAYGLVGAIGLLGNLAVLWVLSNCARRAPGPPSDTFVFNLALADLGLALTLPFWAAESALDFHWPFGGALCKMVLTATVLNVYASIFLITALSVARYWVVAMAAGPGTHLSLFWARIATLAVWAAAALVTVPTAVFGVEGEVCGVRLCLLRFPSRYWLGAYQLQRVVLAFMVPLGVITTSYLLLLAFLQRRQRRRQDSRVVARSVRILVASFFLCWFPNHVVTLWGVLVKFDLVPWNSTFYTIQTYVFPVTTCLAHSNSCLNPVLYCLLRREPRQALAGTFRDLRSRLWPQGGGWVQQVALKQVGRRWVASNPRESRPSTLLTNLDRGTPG

mouse GPCR142 [3] = target: T1, mouse GPCR142; test: cell-based or functional assay
monkey GPCR142 [4] = target: T2, monkey GPCR142; test: cell-based or functional assay
bovine GPCR142 [5] = target: T3, bovine GPCR142; test: cell-based or functional assay
porcine GPCR142 [6] = target: T4, porcine GPCR142; test: cell-based or functional assay
human GPCR142 [7] = target: T6, human GPCR142; test: radioligand binding assays
human GPCR142 [8] = target: T6, human GPCR142; test: radioligand competition binding, recombinant receptor in transfected COS-7 cells
Experimental: (§1) Competition binding experiments were performed to compare the ligand binding properties for recombinant monkey, mouse, bovine, and porcine GPCR142 versus that of the human GPCR142. […] The GPCR142 receptors from different species were also compared in GTPγS binding and Ca²⁺ mobilization assays.
(§2) The binding mixtures were incubated at room temperature for 1 h and then were filtered through 96-well GFC plates (Packard) and washed with ice-cold washing buffer: 50 mM Tris-HCl, pH 7.4. Fifty microliters of Microscint-40 were added to each well and the plates were counted in a Topcounter NTX (Packard).

mouse GPCR142 [9] = target: T1, mouse GPCR142; test: as above
Experimental: as §1, §2

monkey GPCR142 [10] = target: T2, monkey GPCR142; test: as above
Experimental: as §1, §2

bovine GPCR142 [11] = target: T3, bovine GPCR142; test: as above
Experimental: as §1, §2

porcine GPCR142 [12] = target: T4, porcine GPCR142; test: as above
Experimental: as §1, §2

human GPCR142 [13] = target: T6, human GPCR142; test: competition binding with ^125I-relaxin3, membranes of COS-7 cells transiently expressing GPCR142
Experimental: as §2

human GPCR135 = target: T5, human GPCR135; test: competition binding with 100 pM ^125I-relaxin3, membranes of COS-7 cells expressing human GPCR135
Experimental: The binding assays were performed at room temperature for an incubation time of one hour. The binding mixtures were then filtered through GFC filters pre-saturated with 0.3 polyethylenimine (Sigma) and washed with cold binding buffer. […] The results were analyzed by Prism 3.0 software.

Binder | EC50, Ca^2+ mobilization with Gα16 [1] [nM] | EC50, Ca^2+ mobilization with Gα16 (human GPCR142 [2]) [nM] | EC50, GTPγS binding assay (human GPCR142 [2]) | EC50, inhibition of forskolin-stimulated β-gal activity (cAMP reporter) (human GPCR142 [2]) [nM] | EC50, GTPγS binding assay (mouse GPCR142 [3]) [nM] | EC50, GTPγS binding assay (monkey GPCR142 [4]) [nM] | EC50, GTPγS binding assay (bovine GPCR142 [5]) [nM] | EC50, GTPγS binding assay (porcine GPCR142 [6]) [nM] | Kd and Ki values (human GPCR142 [7]) [nM] | IC50 (human GPCR142 [8]) [nM] | IC50 (mouse GPCR142 [9]) [nM] | IC50 (monkey GPCR142 [10]) [nM] | IC50 (bovine GPCR142 [11]) [nM] | IC50 (porcine GPCR142 [12]) [nM] | Ki (human GPCR142 [13]) [nM] | binding result (human GPCR135)
B1 | 50 to 100 | ~50 | 0.93 nM and 0.98 nM | 0.85 | 3.5 | 1.1 | 0.45 | 0.96 | 1 to 2 | 1.45 | 5.45 | 1.34 | 0.87 | 1.59 | 1.2 | –
B2 | – | – | – | – | – | – | – | – | – | – | – | – | – | – | – | no binding
